{
  "source": "patent US11142588B2",
  "about": "“Polypeptides which bind C-X-C chemokine receptor type 4 (CXCR4) and methods of treating or reducing the risk of fibrosis and cancer” (AdAlta Limited, priority 2015, dated 2021)",
  "key": {"[1]": {"tested_on": "HIV entry into CXCR4 expressing T-cells", "assay": "In vitro HIV inhibition assay", "format": "cell-based"}, "Ramos tumor cells": {"tested_on": "Ramos tumor cells", "assay": "MTT cell proliferation assay", "format": "cell-based, human", "settings": "24 to 72 hrs, AM3-114 at 10 μM", "description": "The ability of the CXCR4 molecules or polypeptides disclosed herein (i-bodies) to inhibit proliferation of Ramos tumor cells, a human Burkitt's lymphoma cell line expressing CXCR4 mentioned above, in vitro was examined in a MTT cell proliferation assay as described in (Lapteva (2005) Cancer Gene Therapy 12, 84-89). Cells were grown in a 96-well tissue culture plate and treated with a vehicle or the anti-CXCR4 body. The cells were then incubated with the MTT solution for approximately 4 hours. After this incubation period, a water-insoluble formazan dye is formed. After solubilization, the formazan dye is quantitated using a scanning multi-well spectrophotometer (ELISA reader)."}, "[2]": {"assay": "Bleomycin mouse model of pulmonary fibrosis", "format": "in vivo", "settings": "day 4, dose not given", "description": "The optimal dose of Bleomycin is 2 U/mouse and the optimal time for assessing fibrocyte recruitment was confirmed at day 4. At days 4 bronchoalvelolar lavage (BAL) fluids were collected for analysis of SDF-1 concentration. One half of the lung tissue was used to make single cell suspensions of the lung and the cells used for flow cytometry and assayed for CD45+, CXCR4+ and Collagen1+ (fibrocytes). The other half of the lung tissue was Sircol stained for the presence of collagen 1 and RNA will be tested for Col-1, Col-3 and SDF-1.\nSDF-1, fibrocytes and collagen deposition were monitored at Day 4. Groups were dosed with the i-body just prior to administration with Bleomycin. One half of the lung tissue was minced and washed in PBS and used to make single cell suspensions of the lung with Collagenase A and dispase treatment. The cells were then used for flow cytometry and assayed for CD45+, CXCR4+ and Collagen1+ fibrocytes. […]"}, "[3]": {"tested_on": "Human platelet rich plasma", "assay": "SDF-1α induced platelet aggregation", "format": "cell-based", "settings": "10 or 20 ug/mL, 100 nM SDF-1 alpha", "description": "Experiments were carried out to examine whether the i-bodies could block platelet aggregation induced by SDF-1α. […] In the presence of negative control i-body 21H5 (or the isotype control for 12G5: mouse IgG2a). SDF-1 induced a robust and reproducible aggregation (the descending black curves, which indicate an increase in light transmission), which matches with what has been previously published."}, "[4]": {"assay": "Murine air pouch model with SDF-1", "format": "in vivo, BALB/c mice", "settings": "intraperitoneal, 30 minutes before SDF-1 6 μg", "description": "The ability of i-bodies to block inflammation was evaluated in an in vivo murine air pouch model. The subcutaneous (s.c.) air pouch is an in vivo model used to study acute and chronic inflammation (Durate et al, Models of Inflammation: Carrageenan Air Pouch, Current Protocols in Pharmacology 5.6.1-5.6.8, March 2012). Injection of irritants into an air pouch in rats or mice induces an inflammatory response that can be quantified by the volume of exudate produced, the infiltration of cells, and the release of inflammatory mediators. An air pouch, is generated by injection of sterile air under the skin of the back of the mouse. […] Air pouch lavage fluid is then analyzed for cell trafficking and cytokine release.\nThe air pouch assay was performed on 7-week-old BALB/c mice. On days 1 and 3, 0.2 ml/g initial body weight (IBW) of sterile air was injected under the back skin to create the pouch. […] Thirty minutes later, SDF-1 (6 μg) was injected into the pouch. Four hours later, the mice were killed in a CO2 chamber and the air pouch was washed. Cells were collected, counted, and characterized by flow cytometry."}, "[5]": {"assay": "MOG induced experimental autoimmune encephalomyelitis (EAE)", "format": "in vivo, mouse", "settings": "immunohistochemistry, hematoxylin and eosin", "description": "This is the time that has been reported to be critical for infiltration of inflammatory cells across the blood brain barrier. […] It appears that blocking this migration can alleviate the symptoms of EAE.\nImmunohistochemistry of the brains of the experimental mice was performed."}, "[6]": {"tested_on": "normal and IPF lung fibroblasts", "assay": "Wound healing invasion assay of lung fibroblasts", "format": "cell-based, human", "settings": "AMD3100 12 μM, 21H5 130 μg/ml", "description": "To determine the role of CXCR4 and CXCL12 in fibroblast invasion, normal and IPF lung fibroblasts were utilized in a wound healing invasion assay. ImageLock 96 well plates (Essen Bioscience) were coated with 50 μg/ml of Basement membrane extract (BME; Trevigen) for one hour at room temperature. Normal, and fibroblasts generated from lung biopsies of idiopathic pulmonary fibrosis (IPF) patients showing slow progression or rapid progression of the disease were plated (36,000 cells per well) on the BME-coated plates and incubated overnight. […] The BME was allowed to polymerize by incubating the plate at 37° C. for 15 minutes. The plates were then inserted into an IncuCyte Zoom imaging system and images were acquired every 2 hours for approximately 50 hours. Invasion was quantified using IncuCyte software (Essen Bioscience)."}, "[7]": {"tested_on": "human CD34+ stem and progenitor cells", "assay": "Mobilisation of human CD34+ cells in humanised NSG mice", "format": "in vivo, humanized NODSIL2Rγ (NSG) mice", "settings": "humanised NSG mouse model, compared to AMD3100", "description": "To acquire evidence of mobilisation of human CD34^+ stem and progenitor cells using CXCR4 i-bodies, the above mobilisation experiment was conducted in humanized NODSIL2Rγ (NSG) mice. NSG mice are severely immunodeficient and lack mature T cells, B-cells and NK cells and have severely defective innate immunity, which allows engraftment of human cells without subsequent rejection. NSG mice were transplanted with freshly sorted CD34^+ cord blood cells and upon confirmation of positive human CD45/CD34 engraftment (˜4-5 weeks) were used as a mouse model for human stem cell mobilisation.\nMobilised peripheral blood was harvested and assessed for CD34^+ (human stem and progenitors)."}},
  "data": [
    {"molecule": "21H5: control i-body which does not bind to CXCR4, isotype control, SEQ ID NO: 82 (protein, amino acid sequence encoding 21H5 i-body) LQVDIVPSQGEISVGESKFFLCQVAGDAKDKDISWFSPNGEKLTPNQQRISVVWNDDSSSTLTIYNANIDDAGIYKCVVTGSDAMSNYSYPISESEATVNVKIFQ", "values": [
      {"measurement": "effect in HIV inhibition assay", "setting": "[1]", "result": "no effect"},
      {"measurement": "growth of RAMOS cells", "setting": "Ramos tumor cells", "result": "little effect on cell growth"},
      {"measurement": "recruitment of fibrocytes into the lungs", "setting": "[2]", "result": "Neither the vehicle alone nor the negative control i-body affected recruitment"},
      {"measurement": "blocking of SDF-1α induced platelet aggregation", "setting": "[3]", "result": "Neither the negative control i-body nor the control MAb had any effect"},
      {"measurement": "cell migration / leukocyte infiltration into the air pouch", "setting": "[4]", "result": "did not inhibit cell migration"},
      {"measurement": "inflammatory T-cell infiltration into the white matter of the brain", "setting": "[5]", "result": "Dramatic T-cell infiltration"},
      {"measurement": "invasion / motility of normal, slow and rapid IPF lung fibroblast lines", "setting": "[6]", "result": "had no effect"},
      {"measurement": "mobilisation of human CD34+ stem cells", "setting": "[7]", "result": "do not mobilise stem cells"}
    ]}
  ]
}
